Here are results for three substances from PMC5719345.

The target in assay [1] is N-terminus of influenza B nucleoprotein (B/NP_(1-70)) (influenza B virus (strain B/Memphis/13/03)). Briefly: ITC; MicroCal ITC200; 16 × 2.4 µL injections of 150 µM importin-α7 into 20 µM B/NP_TAIL; 20 mM Tris-HCl pH 7.5, 150 mM NaCl; 20 °C by the methods (25 °C by the legend of Figure 6); triplicate; single-binding site model. In general terms: ITC needs no label: the signal is the heat of the interaction.

The target in assay [2] is importin-α1 (Mus musculus) (UniProt P52293). As to conditions: cited from earlier work.
For assay [3] the target is unchanged. To be noted: cited from earlier work. This is another data set of the same source.

Where two headings read alike, the source gives them in different places.

Chain of N-terminus of influenza B nucleoprotein (B/NP_(1-70)) (influenza B virus (strain B/Memphis/13/03)) (P04665 1-70): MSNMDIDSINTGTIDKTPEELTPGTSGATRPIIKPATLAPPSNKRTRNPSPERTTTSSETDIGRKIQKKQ

Take “human importin-α7 (from UniProt O60684 1-536) (natural protein)”: in assay [1], the equilibrium dissociation constant (Kd) (as a rule, the concentration at which binding is half-saturated) worked out at 844 nM and the stoichiometry N (commonly the number of molecules, sites or subunits per partner or assembly) was 1.

Consider “influenza A nucleoprotein NLS2 213-216 (from UniProt Q289M3)”, for which the Kd in assay [2] was 70000 nM.

With “influenza A nucleoprotein tail NTAIL (from UniProt Q289M3)”, the Kd in assay [3] is 1700 nM.
